Measured values published in patent US20010029022.

Tests used:
GST-HPV16 E7 = GST-HPV16 E7 (UniProt P03129)
His-p27 = His-p27 (UniProt P46527)
Chain of His-p27 (P46527 whole entry, looked up): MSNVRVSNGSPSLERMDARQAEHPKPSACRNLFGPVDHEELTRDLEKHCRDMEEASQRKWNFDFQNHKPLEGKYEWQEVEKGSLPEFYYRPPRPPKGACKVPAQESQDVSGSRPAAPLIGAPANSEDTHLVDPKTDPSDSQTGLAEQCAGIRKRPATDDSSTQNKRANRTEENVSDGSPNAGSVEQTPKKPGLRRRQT

Chain of GST-HPV16 E7 (P03129 whole entry): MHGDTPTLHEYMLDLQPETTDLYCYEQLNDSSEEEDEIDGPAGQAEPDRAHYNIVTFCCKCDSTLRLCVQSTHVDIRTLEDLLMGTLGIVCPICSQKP

## CDK5 complexed with p25
GST-HPV16 E7
  H1 phosphorylation by CDK5 complexed with p25, increase over controls: a 4.5-fold increase over controls

## cyclin E/CDK2 complex
His-p27
  cyclin E/CDK2 phosphorylation of MBP-HPV 18 E1: The phosphorylation of E1 was completely inhibited by the addition of p27 even in the presence of excess GST-16E7
GST-HPV16 E7
  cyclin E/CDK2 phosphorylation of purified MBP-HPV 18 E1 fusion protein: stimulated 2.3-fold by the addition of HPV 16E7
  cyclinE/CDK2 kinase activity with histoneH1 as the substrate, increase over controls: a large increase (26-fold and 13-fold) over controls
  cyclinE/CDK2 kinase activity with pRb as the substrate, increase over background: 1.9-fold increase over background

## cyclin A/CDK2 complex
Histone H1
  Km for histone H1 (cyclinA/CDK2 pre-incubated with HPV16-E7, Michaelis-Menten fit): a Km of 1.1+/-0.2 µM for histone H1
